# In the DeepSol protein solubility set:
# Experiment: soluble on expression in E. coli; label from the status in PepcDB or PDB records
row,Sequence,soluble on expression in E. coli
1,MGHHHHHHSHMEKCSVGGLELTEQTPALLGNMAMATSLMDIGDSFGHPACPLVSRSRNSPVEDDDDDDDVVFIESIQPPSISAPAIADQRNFIFASSKNEKPQGNYSVIPPSSRDLASQKGNISETIVIDDEEDIETNGGAEKKSSCFIEWGLPGTKNKTNDLDFSTSSLSRSKTKTGVRPFNPGRMNVAGDLFQNGEFATHHSPEMHLQRRLMSFFQ,soluble
2,MGHHHHHHSHMFKNTFQSGFLSILYSIGSKPLQIWDKKVRNGHIKRITDNDIQSLVLEIEGTNVSTTYITCPADPKKTLGIKLPFLVMIIKNLKKYFTFEVQVLDDKNVRRRFRASNYQSTTRVKPFICTMPMRLDDGWNQIQFNLLDFTRRAYGTNYIETLRVQIHANCRIRRVYFSDRLYSEDELPAEFKLYLPVQNKAKQ,soluble
3,MGHHHHHHSHMFWRNPLPNIDHELQELLIDRGEDVPSEEEEEEENGFEDRKDDSDDDGGGWITPSNIKQIQQELEQCDVPEDVRVGCLTTDFAMQNVLLQMGLHVLAVNGMLIREARSYILRCHGCFKTTSDMSRVFCSHCGNKTLKKVSVTVSDDGTLHMHFSRNPKVLNPRGLRYSLPTPKGGKYAINPHLTEDQRFPQLRLSQKARQKTNVFAPDYIAGVSPFVENDISSRSATLQVRDSTLGAGRRRLNPNASRKKFVKKR,not soluble
4,MGHHHHHHSHMGLQQEISLQPWCHHPAESCQTTTDMTERLSAEQIKEYKGVFEMFDEEGNGEVKTGELEWLMSLLGINPTKSELASMAKDVDRDNKGFFNCDGFLALMGVYHEKAQNQESELRAAFRVFDKEGKGYIDWNTLKYVLMNAGEPLNEVEAEQMMKEADKDGDRTIDYEEFVAMMTGESFKLIQ,soluble
5,MGHHHHHHSHMHKSNFETLQHYLESQIIGQHDLVKQLLIALLADGHILVEGPPGLAKTRAVKSLSDCVEGDFHRIQFTPDLLPADLTGTDIFRPETGEFTFQSGPIFNSLILADEINRAPAKVQAAMLEAMAEKQVTAGRHTYALPELFLVMATQNPIEQEGTYPLPEAQLDRFLLHLEVDYPDAEHELAILRINRGEAKGECSIERPSLSQQDIFTARQEVLDIHMAEAIEQYIVRLVMATRRASEYDSELDKWLAMGVSPRATIALDRCARAHAWLAGRDFVSPEDVQAMAYPVLRHRLLLSYHAQAEGVTSNQVIDKLLNLVGSA,soluble
6,MGHHHHHHSHMIQPRLLADAIVLFTSSQEEVTLAVTPLNFCLKSSNEESMDLSNAVHSEMFVGSDEFDFFQIGMDTEITFCFKELKGILTFSEATHAPISIYFDFPGKPLALSIDDMLVEANFILATLADEQSRASSPQSLCLSQKRKRSDLIEKKAGKNVTGQALECISKKAAPRRLYPKETLTNISALENCGSPAMKRVDGDVSEVSESSVSNTEEVPGSLCLRKFSCMFFGAVSSDQQEHFNHPFDSLARASGSEEDMNNVCCRKEFNGSDAEYFCII,not soluble
7,MGHHHHHHSHMKVGKNNFRPPPKVESSVVRIEPKNPPPPINFQEWDGLVRITFVRKNKTLSAAFKSSAVQQLLEKNYRIHCSVHNIIIPEDFSIADKIQQILTSTGFSDKRARSMDIDDFIRLLHGFNAEGIHFS,not soluble
8,MGHHHHHHSHMLGSWPARTFHPGACVSRRPSAPWKHTASGKDSPDLRFSEHGVSQEFWAGGLVAVLEMTPSPSPWGTQEDPAGMCSLWVVGWCPCRGAGVRDLVLVHAGVWCKHVCAVQRDACGESRTPAPPRKGGAVTSVLCLFLIKTFPLFSYKFASCKQVHKDPPLVKSGFE,soluble
9,MGHHHHHHSHMNTKTMRLPPRRVLTADKRKERDAFISSVTDNPPEIAKFPSPPPKLVPPPVNPISKKSSTAAAEPIGSNQLMLAGYLSHEYLTQGTLFGEQWNQARAQAESSKIKPSHTVEPAEECEPKRKRYREVANLLRSDGAQLPGIVNPAQLARFLKL,soluble
10,MGHHHHHHSHMQEWLYGEKGYYRKALIGQKGDFYTSVSVSKFFGGAVAFYIIKLLEEEKLFLPLKIVEIGSHHGHFLSDIASFLNALSVGVMEQCAFVSCEPLKELQKLQRTIFKQATQLDLMICDLKDLDFKGHENAFVVSNELFDAFACEIVKDNKMLFIAHDHKGVWGAIDEPTKELLKNLDLKQGCAPLFLEAFIKDLLEKLNEASSWVFLSFDYGDETERKDMHLRAFKNHQALDFKDILNNLASLYQQSDLTYDVNFSLVRFLFEKHHAQFSFFKTQANALLDMGLMGLLETFSKSVGYERYLKEAAKIKPLISPGGLGERFKALEFVKKNKM,not soluble
11,MGHHHHHHSHMRIVFDIGGSVLVPEKPDVDFITKLGYELTKISEDHEIAIVVGGGKVAREYIEVASKFNTNETFKDYLGIQITRANAMLLIAALKERAYPQVVSDFWEAWKAIQLKKIPVMGGTHPGHTTDAVSALLAEFLSADLLVVITNVDGVYTEDPKKNPNAKKIPKMKAKDLVDIVSREAGKAGVSTVIDPLAAKIIMRSGIKTYVIG,not soluble
12,MGHHHHHHSHMRKIDLCLSSEGSEVILATSSDEKHPPENIIDGNPETFWTTTGMFPQEFIICFHKHVRIERLVIQSYFVQTLKIEKSTSKEPVDFEQWIEKDLVHTEGQLQNEEIVAHGSATYLRFIIVSAFDHFASVHSVSAEGTVVSNLSS,soluble
13,MGHHHHHHSHMSCTIEKILTDAKTLLERLREHDAAAESLVDQSAALHRRVAAMREAGTALPDQYQEDASDMKDMSKYKPHILLSQENTQIRDLQQENRELWISLEEHQDALELIMSKYRKQMLQLMVAKKAVDAEPVLKAHQSHSAEIESQIDRICEMGEVMRKAVQVDDDQFCKIQEILAQLELENKELRELLSISSESHQARKENSMDTASQAIK,not soluble
14,MGHHHHHHSHMSGTEEAILGGRDSHPAAGGGSVLCFGQCQYTAEEYQAIQKALRQRLGPEYISSRMAGGGQKVCYIEGHRVINLANEMFGYNGWAHSITQQNVDFVDLNNGKFYVGVCAFVRVQLKVRGWSRPAARKDQWVVGEGWFIS,not soluble
15,MGHHHHHHSHMSHKNMKLKERVLIPVKQYPKFNFVGKILGPQGNTIKRLQEETGAKISVLGKGSMRDKAKEEELRKGGDPKYAHLNMDLHVFIEVFGPPCEAYALMAHAMEEVKKFLVPDMMDDICQEQFLELSYLNGVPEPS,not soluble
16,MGHHHHHHSHMSRRKQGKPQHLSKREFSPEPLEAILTDDEPDHGPLGAPEGDHDLLTCGQCQMNFPLGDILIFIEHKRKQCNGSLCLEKAVDKPPSPSPIEMKKASNPVEVGIQVTPEDDDCLSTSSRRICPKQEHIADKLLHWRGLSSPRSAHGALIPTPGMSAEYAPQGICKDEPSSYTCTTCKQPFTSAWFLLQHAQNTHGLRIYLESEHGSPLTPRVLHTPPFGVVPRELKMCGSFRMEAREPLSSEKI,not soluble
17,MGHHHHHHSHMSVMFDPDTAIYPFPPKPTPLSIDEKAYYREKIKRLLKERNAVMVAHYYTDPEIQQLAEETGGCISDSLEMARFGAKHPASTLLVAGVRFMGETAKILSPEKTILMPTLQAECSLDLGCPVEEFNAFCDAHPDRTVVVYANTSAAVKARADWVVTSSIAVELIDHLDSLGEKIIWAPDKHLGRYVQKQTGGDILCWQGACIVHDEFKTQALTRLQEEYPDAAILVHPESPQAIVDMADAVGSTSQLIAAAKTLPHQRLIVATDRGIFYKMQQAVPDKELLEAPTAGEGATCRSCAHCPWMAMNGLQAIAEALEQEGSNHEVHVDERLRERALVPLNRMLDFAATLRG,soluble
18,MGHHHHHHSHMTDRQDIQKSMAAFKNLSAQCQEVRKRKELELQILTEAIRNWEGDDIKTLGNVTYMSQVLIQCAGSEEKNERYLLLFPNVLLMLSASPRMSGFIYQGKLPTTGMTITKLEDSENHRNAFEISGSMIERILVSCNNQQDLQEWVEHLQKQTKVTSVG,soluble
19,MGHHHHHHSHMTGRLDELEKAITTQNCNTKCVTIPSTCSEIWGLSTPNTIDQWDTTGLYSFSEQTRSLDGRLQVSHRKGLPHVIYCRLWRWPDLHSHHELKAIENCEYAFNLKKDEVCVNPYHYQRVETPVLPPVLVPRHTEILTELPPLDDYTHSIPE,soluble
